Laboratory results: the supplement of paper PMC9170038

Tested on: MS2 coat protein
Experiment: apparent KD of MS2 coat protein; higher = weaker reporter binding
Conditions: Eterna round: R107
Protocol: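 RNA-MaP round R107: designed RNA switches with theophylline, tryptophan, arginine or FMN aptamers are transcribed on-chip within common flanks. They are titrated with SNAP-549-labelled MS2 coat protein in RNA-MaP buffer (100 mM Tris pH 7.5, 80 mM KCl, 4 mM MgCl2), without ligand or with the indicated ligand. Median apparent KD per design.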

[1] = input ligand: theophylline 20 uM
[2] = input ligand: theophylline 2 mM
[3] = input ligand: tryptophan 2.4 mM

Row | Sequence | apparent KD of MS2 coat protein (input ligand: arginine 13.2 mM) | apparent KD of MS2 coat protein (input ligand: none) | apparent KD of MS2 coat protein [1] | apparent KD of MS2 coat protein [2] | apparent KD of MS2 coat protein [3]
1 | AUCGCACCUGGUGAUACCAGCAAUUGCUCGUGACAUGAGGAUCACCCAUGUGGCCAGUGAUGCCCUUGGCAGCAUGGUCGGUGCA [Same State - Theophylline B (Freestyle 25)] | 98.2 nM | 317 nM | 335 nM | 64.5 nM | 288 nM
2 | AUGCAUAGCGGAAGGAGCGCAAUAGAAUGACAUGAGGAUCACCCAUGUAUGUGAUGUGGGUUGCAGGUAGGUCGCCGAGUGGUAU [Exclusion - Arginine B (Freestyle 1)] | 70.7 nM | 60.5 nM | 98.8 nM | 62.6 nM | 55 nM
3 | CGAUCUUUCGAAAGAAGGAUCUUGUCUGAUACCAGAGACGAAAGUCUCCCUUGGCAGCAGUGCCAACAUGAGGAUCACCCAUGUU [Theophylline A 11] | 16 nM | – | 17.6 nM | – | 15.5 nM
4 | AGUACUCGAACGGAUACCAGCCGGACAUGAGGAUCACCCAUGUCCUACCAUGUCUCGGUUGGCCCUUGGCAGCCGUUCGUGUACA [Omei Theo B SS A v2] | 17 nM | – | 469 nM | – | 95.8 nM
5 | GAUAUGUAUCGAAGGAGCGGCCCUUGAUCCUCAUGAGACAUGAGGAUCACCCAUGUCUCGGGCCAGGUAGGUCGCGAUAUAUAUC [Astros-omei-mod3] | 24.9 nM | 18.4 nM | 24.3 nM | 24.7 nM | 21.8 nM
6 | AUUAUAGUUUAUAACGAAGUUGAUACAGAAGGAGCGUGAAUAAUCACAGGUAGGUCGCUGAUAAUACAUGAGGAUCACCCAUGUU [JR_Nu_SSArginiA_Sub018] | 20.7 nM | 20.4 nM | 31.9 nM | 18.9 nM | 19.4 nM
7 | GGUACAUGAGGAUCACCCAUGUGUCAUGAUACCAGACAUGAAAAUGUCCCUUGGCAGCAUGCCAGACGGCCGCGUUUAGCGGCCG [Oresin] | 18.6 nM | 12.8 nM | 19.7 nM | 19.6 nM | 16.3 nM
8 | CGACUACAGCGUGAUACCAGUGACAGAUACCAGUCUAGACAUGAGGAUCACCCAUGUACGCGCCCUUGGCAGCACACUAGAUCGA [#29 Same State - Theophylline B] | 36.7 nM | – | 128 nM | – | 83.2 nM
9 | UGACAUUGCUCAGAUACCAGACAUGAGGAUCACCCAUGUACCAAGAAAGUACAAUAAAAUGUCCCUUGGCAGCUGAGCAAUGUCU [TheoBX 8 #MS2Left #Theo2] | 61.2 nM | – | 137 nM | – | 66.9 nM
10 | CGGUAACCACAUGAGGAUCACCCAUGUGAAGGAGCGGCGAAUAAGCCAGGUAGGUCGCGCAUGAAUAAAUCAUGUUGGUGCCGAA [XArg-A 16 NuPack] | 31.9 nM | 45.7 nM | 121 nM | 64.5 nM | 31 nM
11 | GCACUACAUGAGGAUCACCCAUGUGCAGAUACCAGAGGUGUAUGCCUCCCUUGGCAGCUGAGUAGCUCUGGAGGCCUAUUGGUUU [Same State Theophylline A GF15] | 15.7 nM | – | 20 nM | – | 16.8 nM
12 | ACAUGAGGAUCACCCAUGUGAAGGCACGAUACCAGCUGAUCCCGUGGCCCUUGGCAGCGUCCGGUUUGGUCCGGCGGAUGGGACG [vvamullin] | 13.1 nM | 18.8 nM | 33.6 nM | 21.9 nM | 23 nM
13 | UCUUUUUUCUUUUCUUCUUUCGGUUCUUUUCGAGGACCGGUACGGCCGCCACUCGAAACAUGAGGAUCACCCAUGUUUUGGUUUU [Trypto a] | 15.9 nM | – | 17.6 nM | 13.7 nM | –
14 | GGUGGGACUUGUGAUACCAGCCUAAUUCGAAUCGAAUUGCACAUGAGGAUCACCCAUGUCGGCCCUUGGCAGCAUGAGUAUUUAU [Aagexe] | 104 nM | – | 129 nM | – | 255 nM
15 | AAAAUAAUGGCGGCCGCCACUAACUCAUAUACAUCAUGUACAUGAGGAUCACCCAUGUAGGUGUAUAGGACCGGGCCAUAAUUAA [39MS split4] | 18.3 nM | – | 22.2 nM | 18.8 nM | –
16 | UGACAUUGCUGCGAUACCAGACAUGAGGAUCACCCAUGUGCCAAAUAAACGUACAUAAAUGUCCCUUGGCAGCGCAGCAAUGUCU [MAT - Exclusion Theophlline B - Mod of Eli - D29] | 44.9 nM | – | 112 nM | – | 61 nM
17 | AGCCACUCGAGUGAUCCUCACGAGUGGCUACGAGGACCGGUACGGCCGCCACUCGAAUUAACAUGAGGAUCACCCAUGUAAUAAU [Brourdmod03] | 29.2 nM | – | 188 nM | 270 nM | –
18 | CGACACAUGAGGAUCACCCAUGUAAUGACGCGAGGACCGGUACGGCCGCCACUCGCAUGCCAAUGAGCGCAUGCGGCCUGGGUAU [Exclusion Tryp A GF6] | 17.5 nM | – | 23.6 nM | 19.5 nM | –
19 | AUGCCUAGUGGAAGGAGCGAGGGUCCUCUCAACAUGAGGAUCACCCAUGUUCUUUUGCACCCUCAGGUAGGUCGCCAUUGGGACA [Veanaris] | 30.8 nM | 59.8 nM | 92.4 nM | 65.8 nM | 76 nM
